Reference: publication PMC6635533
Values joined by “and” are separate entries in the source; they are usually repeats but may differ in a detail not shown here. Equal entries are not always repeated.

Tests used:
[1] = biological target: RocA cytoplasmic domain (amino acids 226 to 451) with a C-terminal FLAG tag, expressed in GAS M18 strain H566 (strain CYT_F) (Streptococcus pyogenes (group A Streptococcus), serotype M1 strain 854); assay: cross-linking; live GAS M18 strains treated with 1% formaldehyde (10 min, room temperature), quenched with 250 mM glycine; protoplast preparations, SDS-PAGE, anti-FLAG blot
[2] = biological target: RocAM1 with a C-terminal FLAG tag, full length (amino acids 1 to 451), expressed in GAS M18 strain H566 (strain M1_F) (Streptococcus pyogenes (group A Streptococcus), serotype M1 strain 854); assay: as above
[3] = biological target: RocAM3 with a C-terminal FLAG tag (amino acids 1 to 416), expressed in GAS M18 strain H566 (strain M3_F) (Streptococcus pyogenes (group A Streptococcus), serotype M3 strain 188); assay: as above
[4] = biological target: RocA_(FLAG) expressed from a single chromosomal copy in GAS M1 strain 854 (strain 854_chF) (Streptococcus pyogenes (group A Streptococcus), serotype M1 strain 854); assay: cross-linking; formaldehyde cross-linking with GAS M1 strain 854_chF (native expression level); RocA_(FLAG) affinity purified from the protoplast lysate for detection by anti-FLAG blot

RocA cytoplasmic domain (amino acids 226 to 451) with a C-terminal FLAG tag, expressed in GAS M18 strain H566 (strain CYT_F) (domain or fragment)
stoichiometry N [1]: 2

RocAM1 with a C-terminal FLAG tag, full length (amino acids 1 to 451), expressed in GAS M18 strain H566 (strain M1_F) (natural protein)
stoichiometry N [2]: 2 and 4

RocAM3 with a C-terminal FLAG tag (amino acids 1 to 416), expressed in GAS M18 strain H566 (strain M3_F) (natural protein)
stoichiometry N [3]: 2

RocA_(FLAG) expressed from a single chromosomal copy in GAS M1 strain 854 (strain 854_chF) (natural protein)
stoichiometry N [4]: 2
